From the RNAGym collection of RNA variant scans (doi:10.1073/pnas.2313332121)

B1: TPR t1 (parent)
chain: GACCAAUCUGCCCUCAGAGCUCGAGAACAUCUUCGGAUGCAGAGGAGGCAGGCUUCGGUGGCGCGAUAGCGCCAACGUCCUCAACCUCCAAUGCAUCCCACCACAUGAUGAUGCCUGAAGAGCCUUGGUUUUUUG

Variants of: B1
Assay: polymerase ribozyme fitness, log enrichment relative to wild type (log ratio); higher = more active; in vitro selection for triplet polymerase activity
In short: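 Mutant libraries for each subunit of a heterodimeric triplet polymerase ribozyme were made by PCR and then transcribed. Each library underwent one round of in vitro selection in triplicate: annealing with a biotinylated primer, the partner subunit and triplets, frozen incubation at −7 °C, gel excision of extended constructs, streptavidin-bead capture and RT-PCR. Input and output libraries were Illumina-sequenced, and only genotypes with ≥10 input reads and ≥1 read per output were kept. Fitness is the logarithm, base 2, of genotype enrichment over wild-type enrichment, computed from inverse-variance-weighted replicate averages.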

Variant	polymerase ribozyme fitness (log ratio)
GACCAAUCUGCUCUCAGAGCUCGAGAACAUCUUCGGAUGCAGAGGAGGCAGGCUUCGGUGGCGCGAUAUCGCCAACGGCCUCAACCUCCAAUGCAUCCCUCCACAUGAUGAUGCCUGAAGAGCCUUGGUUUUUUG [C12U G69U U78G A100U]	-0.359
GACCAAUCUGCCCUCAGAGCUCGAGAACAUCUUCGGAUGCAGAGGAGGCAGGCUUCGGUGGCGCGAUAGCCCCAACGUACUCAAGCUCCAAUGCAUCCCACCACAUGAUGAUGCCUGAAAAGCCUUGGUUUUUUG [G71C C79A C85G G120A]	-3.28
GACCAAUCUGCCCUCAGAGCUCGAGAACAUCUUCGGAUGCAGAGGAGGCAGGCUUCGGUGGCGCGUUAGCGCCAACGUCCACAACCUCCAAUGCAUCCCACCACAUGAUGAUGCCUGAAGAGCCUUGGUUUUUUG [A66U U81A]	-1.96
GACCAAUCUGCCCUCAGAGCUCGAGAACAUCUUCGGAUGCAGAGGAAGCAGGCUUCGGUGGCGCGAUAGCGCCAACGUCCUCAACCUCCAAUGCAUCCCACCACAUGAUGAUGCCUGAAGAGCGUUGGUUUUUUG [G47A C124G]	0.559
GACCAAUCUGCCCUCAGAGCUGGAGAACAUCUUCGGAUGCAGAGGAGGCAGGCUUCGGUGGCGCGAUAACGCCAACGUCCUCAACCUCCAAUGCAUCCCACCACAUGAUGAUGCCUGAAGAGCCUUGGUUUUUUG [C22G G69A]	-3.64
GACCAAUCUGCCCUCAGAGCUCGAGAACAUCUUCGGAUGCAGAGGAGGCAGGCUUCGGUGGCGCGAUAGCGCCAACGCCCUCAACCUCCAAUGCAUCCCACCACAUGAUGAUGCCUGAAGAGCCUUGGUUCUUUG [U78C U131C]	-0.936
GACCAAUCUGCCCUCAGAGCUCGAGAACAUCUUUGGAUGCAGAGGAGGCAGGCUUCGGUGGCGCGAUAGCGCCAACAUCCUCAACCUCCAAUGCAUCCCACCACAUGAUGAUGCCUGAAGAGCCUUGGUUUUUUG [C34U G77A]	-5.22
GACCAAUCUGCCCUCAGAGCCCGAGAACAUCUUCGGAUGCAGAGGAGGCAGGCUUCGGUGGCGCGAUAGCGCCAACGUCCUCAACCUCCAAUGCAUCCCACCACAUGAUGAUGCCUGAAGAGCCUUGGUUUUUUG [U21C]	-0.0619
GACCGAUCUGCCCUUAGAGCUCGAGAACAUCUUCGGAUGCAGAGGAGGCAGGCUUCGGUGGCGCGAUAGCGCCAACGUCCUCAACCUCCAAUUCAUCCCACCACAUGAUGAUGCCUUAAGAGCCUUGGUUUUUUG [A5G C15U G93U G117U]	-1.5
GACCAAUCUUCCCUCAGAGCUCGAGAGCAUCUUCGGAUGCAGAGGAGGCAGGCUUCGGUGGCGCGAUAGCGCCAACGUCCUCAACCUCCAAUGCAUCCCACCACACGAUGAUGCCUGAAGAGACUUGGUUUUUUG [G10U A27G U106C C123A]	0.556
GACAAAUCUGCCCUCAGAGCUCGAGAACAUCUUCGGAUGCAGAGGAGGCAGGCUUCGGUGGCGCGAUAGCGCCAACGUCCUCAACCUCCAAUGCAUCCCACCACAUGAUGAUGUCUGAAGAGCAUUGGUUUUUUG [C4A C114U C124A]	-2.3
GACCAAUCUGCCCUUAGAGCUCGAGAACAUCUGCGGAUGCAGAGGAGGCAGGCUUCGGUGUCGCGAUAGCGCCAACGUCCUCAACCACCAAUGCAUCCCACCACAUGAUGACGCCUGAAGAGCCUUGGUUUUUUG [C15U U33G G61U U87A U112C]	-4.85
GACCAAUCUGCCUUCAGAGUUCGAGAACAUCUUCGGAUGCAGAUGAUGCAGGCUUCGGUGGCGCGAUAGCGCCAACGUCCUCAACCUCCAAUGCAUCCCACCACAUGAUGAUGCCUGAAGAGCCUUGGUUUUUUG [C13U C20U G44U G47U]	-3.8
GACCAAUCUGCCGUCAGAGCUCGAGAACAUCUUCGGAUGCAGAGGAGGCAGGCUUCGGUGGCGCGAUACCGCCAACGUCCUCAACCUCCAAUGCAUCUCACCACAUGAUGAUGCCUGAAGAGCCUUGGUUUUUUG [C13G G69C C98U]	-3.93
GACCAAUCUGCCCUCAGAGCUCGAGAACAUCUUCGGAUGCAGAGGAGGCAGGCUUCGGUGGCGCGAUAGAGCCAACGUCCUCAACCUCCAAUGCAUCCCACCACAUGAUGAUGCCUGAAGAUCCUUGGUUUUUUG [C70A G122U]	-1.64
GACCAAUCUGCCCUCAGAGCUCGAGAACAUCUUCGGAUACAGAGGAGGCAGGCUUCGGUGGCGCGAUAGCGCCAACGUCCUCAACCUCCAAUGCAUCCCACCACAUGAUGAUGCCUGAAGAGCCUUGGUUUUUUU [G39A G135U]	-1.41
GACCAAUCUGCCCUCAGAGUUCGAGAACAUCCUCGGAUGCAGAGGAGGCAGGCUUCGGUGGCGCGAUAGCACCAACGUCCUCAACCUCCAAUGCAUCCCACCACAUGAUGACGCCUGAAGAGCCUUGGUUUUUUG [C20U U32C G71A U112C]	-1.25
GACCAAUCUGCCCUCAGAGCUCGAGAACAUCUUCGGAUGCAGAGGAGGCAGGCUUCGGUGGCGCGAUAGCGCCAACGUCCUCAACCUCCAAGGCAUCCCACCACAUGAUGAUGCCUGAAGGGCCUUGGUUUUUUG [U92G A121G]	-0.555
GACCAAUCUGCCCUCAGAGCUCGAGAACAUCUUCGGAUGCAGAGGAGGCAGGCUUCGGUGGCGCGAUAGCGCCAACGUCCUCAACCUUCAAUGCAUCCCACCACAUGAUGAUGCCUGAAGAACCUUGGUUUUUUG [C88U G122A]	-1.42
GACCAAUCUGCCCUCAGAGCUCGAGAACAUCUUCGGAUGCAGAGGAGGCAGGAUUCGGUGGCGCGAUAGCGCCAACGUCCUCAACCUUCAAUGCAUCCCACCACAGGAUGAUGCCUGAAGAGCCUUGGUUUUUUG [C53A C88U U106G]	-1.18
GACCAAUCUGCCCUCAGAGAUCGAGAACAUCUUCGGAUGCAGAGGAGGCAGGCUUCGGUGGGUCGAUAGCGCCAACGUCCUCAACCUCCAAUGCAUCCCACCACAUGAUGAUGACUGAAAAGCCUUGGUUUUUUG [C20A C62G G63U C114A G120A]	-6.07

Variant	polymerase ribozyme fitness (log ratio)
GACCAAUCUGCCGUCAGAGCUCGAGAACAUCUUCGGAUGCAGAGGAGGCAGGCUUCGGUGGCGCGAUAGCGCCAACGUCCUCAACCUCCAAUGAAUCCCAGCACAUGAUGAUGCCUGAAGAGGCUUGGUUUUUUG [C13G C94A C101G C123G]	-1.76
GACCAAUCUGCCCUCAGAGCUCGAGAACAUCUUCGGAAGCAGAGGAGGCAGGCUUCGGUGGCGCGAUAGCGCUAACGUCCUCAACCUCCAAUGCAUCCCACCACAUGAUGAUGCCUGAAGAGCCUUGGUUUUUUG [U38A C73U]	-2.86
GACCAAUCUGCCCUCAGAGCUCGAGAACAUCUUCGGAUGCAUCGGAGGCAGGCUUCGGUGGCGCGAUAGCGCUAACGUCCUCAACCUCCAAUACAUCCCACCACAUGAUGAUGCCUGAAGAGCCUUGGUUUUUUG [G42U A43C C73U G93A]	-2.39
GACCAAUCUGCCCUCAGAGCUCGAGAACAUCUUCGGAUGCAGAGGAAGCAGGGUUCGGUGGCGCGAUAGCGCCAACGUCCUCAACCUCCAAUGCAUCCCAUCACAUGAUGAUGCCUGAAGAGCCUUGGUUAUUUG [G47A C53G C101U U131A]	-1.26
GACCAAUCUGGCGUCAGUGCUCGAGAACAUCUUCGGAUGCAGAGGAGGGAGGCUUCGGUGGCGCGAUAGCGCCAACGUCCUCAACCUCCAAUGCAUCCCACCACAUGAUGAUGCCUGAAGAGCCUUGGUUUUUUG [C11G C13G A18U C49G]	-3.53
GACCAAUCUGCCCUCAGAGAUCGAGAACAUCUUCGGAUGCAGAGGAGGCAGGCUUCGGUGGCGCGAUAGCGUCAACGUCCUCAACCUCCAAUGCAUCCCACCACAUGAUGAUGCCUGAAGAGCCUUGGUUUUUUG [C20A C72U]	-2.98
GACCAAUCUGCCGUCAGAGCUCGAGAACAUCUUCCGAUGCAGAGGAAGCAGGCUUCGGUGGCGCGAUAGCGCCAACGUCUUCAACCUCCAAUGCAUCCCACCACCUUAUGAUGCCUAAAGAGCCUUGGUUUUUUG [C13G G35C G47A C80U A105C G107U G117A]	-7.66
GACCAAUCUGCCCUCAGAGAUCGAGAACAUCUUCGGAUGCAGAGGAGGCAGCCUUCGGUGGCGCGAUAGCGCCAACGUCCUCAACCUCCAAUGCAUCCCACCACAUGAUGAUGCCUGAAGAGCCUUGGUUUUUUG [C20A G52C]	-2.97
GACCAAUCUGCCCUUAGAGCUCGAGAACAUCUUCGGAUGCAGAUGAGGCAGGCUUCGGUGGCCCGUUAGCGCCAACGUCCUCAACCUCCAAUGCAUCCCACCACAUGAUGAUGCCUUAAGAGCCUUGAUUUUUUG [C15U G44U G63C A66U G117U G128A]	-6.51
GACCAAUCUGCCCUCAGAGCUCGAGAACAUCUUCGGAUGCAGAGAAGGCAGGCUUCGGUGGCGCGAUAGCGCCAACGUCCUCAAUCUCCAAUGAAUCCCACCACAUGAUGAUGCCUGAAGAGCCUUGGUUUUUUG [G45A C85U C94A]	-2.05
GACCAAUCUGCCCUCAGAACUCGAGAACAUCUUCGGAUGCAGAGGAGGGAGGCUUCGGUUGCGCGAUAGCGCCAACGUCCUCAAUCUCCAAUGCAUCCCACCACAUGAUGCUGCCUGAAGAGCCUUGGUUUUUUG [G19A C49G G60U C85U A111C]	-2.03
GACCAAUCUGCCCUCAGAGCUCGAGAACAUCUUCGGAUGCAGAGGAGGUAGGCUUCGGUGGCGCGAUAGCGCCAACGUCCUCAACCUCCAAUGCAUCCCACCACAUGAUAAUGCCUGAAGAGCCUUGGUUUUUUG [C49U G110A]	-1.45
GACCAAUCUGCCCACAGAGCUCGAGAACAUCUUCGGAUGCAGAUGAGGCAGGCUUCGGUGGCGCGAUAGCGCCAACGUCCUCAACCUCCAAUGCAUCCCACCACAUGAUGAUGCCUUUAGAGCCUUGGUUUUUUG [U14A G44U G117U A118U]	-4.78
GACAAAUCUGCCCUCAGAGCUCGAGAACAUCUUCGGAUGCAGAGGAGGCAGGCUUCGGUGACGCGAUAGCGCCAACGACCUCAACCUCCAAUGCAUCCCACCACAUGAUGAUGCCUGAAGAGCCUUGUUUUUUUG [C4A G61A U78A G128U]	-1.35
GACCAAUCUGUCCUCAGAGCUCGAGAACAUCUUCGGAUGCAGAGGAGGCAGGCUUCGGUGGCGCGAUAGCGCCAACGUCCUCAACCUCCAAUGCAUACCACCACAUGAUGAUGCCUGAAGAGCCUUGGUUUUUUG [C11U C97A]	-4.6
GACCAAUCUGCCCUCAGAGCUCGAGAACAUCUUCGGAUGCAGAGGAGGCAGGCUUCGGUGGCGCGAUAGCGCCAACGUCCUCAACCUCCAAUGCUUCCCACCACAUGAUGAUGCCUGAAGAGCCUUGGUUUUUUG [A95U]	-0.816
GACCAAUCUGCCCUCAGAGCUCGAGAACAUCUUCGGAUGCAGAGGAGGCAGGAGUCGGUGGCGCGAUAGUGCCAACGUCCUCAACUUCGAAUGCAUCCCACCACAUGAUGAUGCCUGAAGCGCCAUGGUUUUUUG [C53A U54G C70U C86U C89G A121C U125A]	-2
GACCAAUCUGCCCUCAUAGCUCGAGAACAUCUUCGGAUGCAGAGGAGCCAGGCUUCGGUGGCGCGAUAGCGCCAACGUCCUCAACCUCCAAUGCAUCCCACCACAUGAUGAUGCCUGAAGAGCCUUGGUUUUUUG [G17U G48C]	-2.61
GACCAAUCUGCCCUCAGAGCUCGAGAACAUCUUCGGAUGCAGAGGAGGCAGGCUUCGGUGGCGCGAUAGAGCCAACGUCCUCAACCUCCAAUGCAUCCCACCACAUGAUGCUGCCUGAAGAGCCUUGGUUUUUUG [C70A A111C]	-2.46
GACCAAUUUGCCCUCAGAGCUCGAGAACUUCUUCGGUUGCAGAGGAGGCAGGCUUCGGUGGCGCGAUAGCGCCAACGUCCUCAACCUCCAAUGCAUCCCACCACAUGAUGAUGCCCGAAGAGCCUUGGUUUUUUG [C8U A29U A37U U116C]	-2.24
GACGAAUCUGCCCUCAGAGCUCGAGAACAUCUUCGGAUGCAGAGGAGGCAGGCUUCGGUGGCGCGAUACCGCCAACGUCCUCAACCUCCAAUGCAUCCCACCACAUGAUGAUGCCUGAAGAGCCUUAGUUUUUUG [C4G G69C G127A]	-2.67
